Reference: the supplement of paper PMC10126150
± gives the standard deviation of the averaged measurements.

Test system: ATP
Test: switch fluorescence ratio, 500 uM ATP over buffer (Cy3 cluster intensity, sum of 5 cycles each) (fold (ratio)); higher = stronger signal-on switching upon ATP binding; sequences stand for … in TCGTCGGCAGCGTCAGATGTGTATAAGAGACAGTTTTTTTTTTTTTTTTTTTTTTTTT…TC
Conditions: aptamer strand: ATP DNA aptamer (quencher-CACCTGGGGGAGTATTGCGGAGGAAGG + anchor), 100 nM annealed; ATP concentration: 500 uM
Summary of the method: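 After annealing to 100 nM quencher-labelled ATP aptamer, Cy3-labelled switching-strand clusters on a modified Illumina MiSeq flow-cell were imaged in selection buffer. A second image followed after 15 min with 500 uM ATP at 22 °C, and five such buffer/ATP cycles were done, each separated by NaOH stripping and re-annealing. The fluorescence ratio, averaged per switch-domain sequence, is summed target-cycle over summed buffer-cycle Cy3 intensity per cluster, with clusters outside 100-1000 RFU excluded.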
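Further: ATP exposure 15 min at 22 °C before imaging.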

| Sequence | switch fluorescence ratio |
| --- | --- |
| GATTGGGGGA | 0.984 ± 0.036 |
| GAGGGTAATC | 1.004 ± 0.01 |
| TGAATGATAG | 0.983 ± 0.026 |
| GCATGAAGGT | 1 ± 0.014 |
| AAAACGCGGT | 1.2 ± 0.042 |
| AATTATGGTG | 1.01 ± 0.012 |
| ATTTGGATAA | 0.9893 ± 0.0066 |
| GACGTACTCA | 1.51 ± 0.17 |
| ATTCTACCGC | 1.49 ± 0.08 |
| AAGAACTTAG | 1.026 ± 0.0074 |
| CCGGGTGGG | 1.01 ± 0.062 |
| TTTAGCATGG | 1.01 ± 0.047 |
| GGTCCTGGCT | 1.015 ± 0.01 |
| AAGGGCGTAT | 1.01 ± 0.02 |
| TATTAAACCG | 1.06 ± 0.013 |
| CATATGGTTG | 0.99 ± 0.018 |
| TGTTTCCCGT | 1 ± 0.022 |
| GGGAGAACGG | 0.977 ± 0.046 |
| AAGATGAGTA | 0.982 ± 0.032 |
| GGCCCCTGGC | 1.04 ± 0.063 |
| TCAGGGGTGC | 1.09 ± 0.049 |
| GTGTGTTCGC | 0.9546 ± 0.0069 |
| ATGTATAGTT | 1.02 ± 0.017 |

| Sequence | switch fluorescence ratio |
| --- | --- |
| TCAGAGAAGA | 0.962 ± 0.023 |
| ATTGTGGATA | 0.95 ± 0.022 |
| GAATGGGTAG | 0.9961 ± 0.0042 |
| GCGATGTATA | 1.02 ± 0.013 |
| TGGAAATAGG | 0.981 ± 0.039 |
| TCACGGTGTG | 0.983 ± 0.02 |
| AAACTGGGGT | 0.999 ± 0.0016 |
| TTGTAGCGGT | 1.05 ± 0.034 |
| TGTTAAAAAA | 1.01 ± 0.02 |
| TTGGTTTTCG | 0.973 ± 0.026 |
| TAGTTTTTAA | 1.01 ± 0.008 |
| TGGTTTGCGC | 1.36 ± 0.46 |
| AGGGGTGTGG | 1.01 ± 0.017 |
| TAACGAGTCT | 1.01 ± 0.029 |
| AGGGAGAGTC | 1.036 ± 0.0025 |
| CAATTCATTA | 1.02 ± 0.02 |
| TTTTGGGTTT | 1.02 ± 0.086 |
| AATAATCGGT | 0.975 ± 0.035 |
| GGGGGTGCTT | 1.03 ± 0.056 |
| ACGGTCCGGG | 1.06 ± 0.036 |
| GTTTGGGTTT | 0.992 ± 0.031 |
| TGCTTTTACG | 1.04 ± 0.064 |
| GCTCGCCTTA | 0.999 ± 0.039 |

| Sequence | switch fluorescence ratio |
| --- | --- |
| TTACGGGCGA | 0.998 ± 0.029 |
| CTGGGGGAAG | 0.985 ± 0.034 |
| GGGATAGGCT | 1.02 ± 0.021 |
| GTATGCTAGC | 1.004 ± 0.0086 |
| GCGCCCAACT | 1.03 ± 0.035 |
| AAGTGTAGAG | 1.027 ± 0.0092 |
| CGGTTTTTAT | 0.983 ± 0.018 |
| CCGGTTTTTG | 1.01 ± 0.05 |
| AATGGGGGAT | 0.988 ± 0.029 |
| TATATTGCGT | 0.9711 ± 0.0073 |
| TTGGGTAAGC | 0.994 ± 0.066 |
| ATTAGTGAGC | 1.03 ± 0.051 |
| TTTCGGGTTG | 1.02 ± 0.042 |
| TCAGGCGGC | 0.992 ± 0.017 |
| GCTGAATAAT | 1.01 ± 0.029 |
| TACGGGGATG | 0.9963 ± 0.0056 |
| AATGTTGTGG | 0.985 ± 0.031 |
| AATTAATGCA | 1.01 ± 0.038 |
| CTACTGGGGA | 1.05 ± 0.036 |
| AATCGGGGTC | 1.01 ± 0.015 |
| GAAGAATGGT | 0.975 ± 0.013 |
| TTTTACTT | 0.998 ± 0.042 |
| ATTTTTGTGA | 0.98 ± 0.013 |

| Sequence | switch fluorescence ratio |
| --- | --- |
| GGACAAACGT | 1.2 ± 0.052 |
| GAGGCACGG | 1.0469 ± 0.00025 |
| CATGAATATG | 1.01 ± 0.03 |
| CTAAGGGGCA | 1 ± 0.019 |
| ATAAATAAAA | 0.984 ± 0.036 |
| TTTTCCGTTT | 1.02 ± 0.032 |
| GGATGTGTTT | 0.999 ± 0.029 |
| TTGTCTAGGT | 1.01 ± 0.013 |
| TGACCTCGTG | 0.995 ± 0.039 |
| AATTCAGCCA | 0.9878 ± 0.0057 |
| TTTGTTGCAG | 0.994 ± 0.036 |
| GTTGTGGGTG | 1.03 ± 0.018 |
| GTTACATAGC | 1.08 ± 0.014 |
| AGATAGTCTC | 0.991 ± 0.024 |
| TCAATAGACC | 1.05 ± 0.011 |
| AGTCATGAAA | 1.11 ± 0.12 |
| GAAAACGAAT | 1.07 ± 0.14 |
| CGTTTGTTCT | 1.03 ± 0.061 |
| CTTCTTGGAG | 0.967 ± 0.026 |
| TGATAGGTGC | 1.19 ± 0.014 |
| CTGAATGGGG | 0.971 ± 0.01 |
| GATCAAGGGG | 0.9939 ± 0.0078 |
| TAAGTACGTG | 1.18 ± 0.035 |

| Sequence | switch fluorescence ratio |
| --- | --- |
| TTCTGGGGGT | 0.999 ± 0.051 |
| TAATTTGAAT | 1.028 ± 0.0063 |
| TTTTATAATA | 1.05 ± 0.034 |
| GCAAAAATGT | 1 ± 0.029 |
| GGGGGACTTT | 1.08 ± 0.08 |
| CGCAGAGTGG | 1.01 ± 0.018 |
| TAAAGATAGC | 1.02 ± 0.064 |
| AGCTTTGTTT | 1.01 ± 0.013 |
| ACTAAGCTTG | 1 ± 0.033 |
| CGTTGTTTGG | 0.966 ± 0.058 |
| GCGGCACGGG | 1.02 ± 0.054 |
| TTAAAACGGG | 0.969 ± 0.037 |
| TTTTTTTTCG | 1.05 ± 0.12 |
| TTTGTGTTTA | 0.9791 ± 0.0042 |
| CTGCATGTGC | 2.14 ± 0.11 |
| GTTAGTACTG | 0.96042 ± 0.00063 |
| TTAGGGTTTT | 1.04 ± 0.067 |
| GGATCTAGGG | 0.981 ± 0.018 |
| GAGAGGGAAT | 1.021 ± 0.0091 |
| GTTTTGGTAG | 1.001 ± 0.0067 |
| AATGTGGGTC | 0.9392 ± 0.006 |
| ATTGTGGGAA | 0.9843 ± 0.0028 |
| GCACGCGGCT | 1.02 ± 0.019 |

| Sequence | switch fluorescence ratio |
| --- | --- |
| TAAGTCCTT | 1.01 ± 0.048 |
| TTCGAAGGCT | 0.995 ± 0.017 |
| AGGTAGGCGC | 0.98 ± 0.041 |
| TGTAAGGGGT | 1.06 ± 0.085 |
| CCGTATTGGT | 1.03 ± 0.039 |
| TCAATACTTC | 1.88 ± 0.19 |
| AGGGGTTTCG | 0.994 ± 0.025 |
| TTAGTCCTTT | 1.03 ± 0.058 |
| GCTGGATTGG | 0.965 ± 0.016 |
| GTGGTATCGG | 0.989 ± 0.029 |
| TTCGGCGTTG | 0.972 ± 0.02 |
| GGTGTAGCGA | 1.03 ± 0.026 |
| AAAGGGAAGG | 1.01 ± 0.018 |
| TGAAGGATAC | 1.28 ± 0.23 |
| AGGGTTAGGA | 1.02 ± 0.033 |
| AGCGAAGATG | 1 ± 0.033 |
| TTGTTATGTG | 0.955 ± 0.024 |
| AGAGGAATTT | 1.01 ± 0.02 |
| CATGTTGTAT | 0.98166 ± 0.00075 |
| TCCGGGATCC | 1.25 ± 0.04 |
| GAACTGTATG | 1.05 ± 0.056 |
| AATTTAGGGA | 1 ± 0.0089 |
| TAGGGAATGT | 1 ± 0.019 |

| Sequence | switch fluorescence ratio |
| --- | --- |
| TGTTGGGATT | 0.998 ± 0.016 |
| TAAACTGCGG | 1.03 ± 0.02 |
| AGAGGGGCGG | 1 ± 0.016 |
| ACGATGTAAA | 0.9574 ± 0.0042 |
| GATCCTTTAT | 0.979 ± 0.02 |
| AATAGGGATT | 0.984 ± 0.019 |
| TTGGGCCGCT | 0.974 ± 0.1 |
| TCTAGTGTCG | 1.03 ± 0.11 |
| TTTAGGGCGG | 0.994 ± 0.017 |
| AAAGAGGTTC | 1.04 ± 0.068 |
| CTTCTAAGTC | 1.004 ± 0.0097 |
| TAAAAGTCCG | 1.06 ± 0.022 |
| CAGGAAGCGG | 1.025 ± 0.0027 |
| ATGACCTCTT | 0.985 ± 0.034 |
| GAGTTTATAT | 1.01 ± 0.017 |
| TCCAAACCAG | 1.06 ± 0.012 |
| TGGAAATCGC | 1 ± 0.04 |
| AGGAATCGTT | 0.9969 ± 0.0072 |
| TCTGAGGGGG | 1 ± 0.027 |
